Drawing on a protein production outcome set (Wang et al. 2014), this text covers protein production for 16 sequences.

The nature of the data set: label from the status in PepcDB records.
In the case of “MNMNITYISIYKTSLPVLVSLLMEYLIGFTDTAYLGRVGETELAASAIAGTYYMIIYMIGFGFSIGAQILIAQYNGNQQYKEAGKILSQGILFLLIIAVIVILFSSIISPIILKSIIDSESVLQAVLQYLDWRIYGFFFSFTIIMFRAFYIGIIHTSALMLNSITMVAINVILNYILIFGALGIPVLGISGAAIASVISEAVAVIHFIIYTQKNVSSCKYGLKRRITIDCTILKKILSISIWMMLQHGLVFGSWFVFFITMEHFGERSLAITNIVRNISSFLFLFVQAFASVVSSLVGNLIGENKGNSILYVCKKVIFLCYMTILPIMVLFLFFPSSTLRIYSDNTVLVFEAIPTLKVMLTSYLIAVPTFVFFSAVSGIGHAVASLLIAFISLVVYIVYVETISHFSSSVPLLWTSEHIYFSCVFILSLYHIHHSWMSFINQDKKLTTNIS”, the protein production entry is “failed”.
For the sequence “MNNHQTPQATSPLAAWLCYLEHLHSQPIELGLERVKQVAERLDLLKPAPKIFTVAGTNGKGTTCCTLEAILLAAGLRVGVYSSPHLLRYTERVRIQGQELSEAEHSHSFAQIEAGRGDISLTYFEFGTLSALQLFKQAKLDVVILEVGLGGRLDATNIVDSDVAAITSIALDHTDWLGYDRESIGREKAGVFRGGKPAVVGEPDMPQSIADVAAELGAQLYRRDVAWKFSQQEPFDQQEPVDQQINGWHWQCGERQLTGLPVPNVPLANAATALAVLHYSELPLSDEAIRQGLQAASLPGRFQVVSEQPLLILDVAHNPHAARYLVNRLAQVINPVNASKQGKVRAVVGMLSDKDIAGTLACLSERVDEWYCAPLEGPRGASAGQLAEHLVSARQFSDVETAWRQAMQDADTQDVVIVCGSFHTVAHVMAALHL”, the protein production entry is listed as “not failed”.
“MNNINTIIQREYMIRVRKKSFLVMTILMPILFVGLVSLPIVLAQLGGDMKTIAIADRTGEYEQLFKENDEFRFVHAEKTAEEYRKMGADKSGIDAVLEIRQDLLEDPNAVAIYGYKQLPASVSNHISRILSDYLSDKKIASYNIPDIKQILADSKIELSVHTYKWSEDGTNERTSGELASGISMMMMVVIFFLIMTLAAMVQAGVLEEKKNRIMEVMVSSTRPFNLMMGKIIGIGLVGLTQLICWGVLTVLLLTVAQIAFLGNLYSPEALSRMQASDITGMASSMNAEDFAEMKEVMNIIGGINFGELFVMFLIFFIGGYLLYSSIFAVIGSMVSNDEDTSQFMMPVMILLMFGFYAAYGSMNNPEGSLAFWCSLIPFTSPLVMMVRLPYDVPLWQELLSIGLLYGCFVLMTWIGAKIYRVGVLMYGKKPSIKEIIRWINYK”: the protein production result is recorded as “failed”.
To “MNNIRQLTKDEYPKAIELSWQVFTITGKEDFNNEGLEFFKSFIYNKKCINEIIFYGSFDNEALTGILGIKSNGKHISLFFIKPEYHRHGLGKKLFHYASTLHPSIETTVNSSTYAIPFYRSLGFAVVGEKQNYHGLCSTPMRRYHAVFVQKNKYTLRTWQTEDAHSLVQELNNKKIWDNCRNVFPHPYRLEHAETFIDLIQKKEGIHDFCIEVNGKAVGNIGFTPGTDVECFNAEVGYVIGEKYWNQGIVTDALQEAIYHYFTYTNTIRIFALVFEHNLPSMRVLEKAGFNKVGIMTKSIFKNGHFTNAHLFELLKNVLEHHHHHH” belongs “failed”; to “MNNISSNIKKVLFIFLVIFFVTISYITYFELIVSPKIVNNTDNKRLWAKRNEVLRGTIYDRNKKALTKSERVNTLTQKREYTGGAMFSHVLGYVNPQYGLTGLEAKYDQYLMGADDQPINQYLMELIKNKGKVSPEDKRGEDVVTTLDYNIQQQAYNLLGDNKGSVVVLNPKTGEILAMVSKPSYDPNDDALKASWAALNSNPDRPLLNRAVSGLYPPGSTFKTVTAISALENISGIQNETFNDPGQLVFNSTESLRDFGGESFGDIGFKHAYVVSSNVVFGKIGLQLGNNNLRQTAESFYFNKNIPCDGIVIDKSKFPTLKSYEKGNMAQSAIGQASVLATPIQMALVASTVANDGVMMKPHVVNEILSPNGDKIKSIEPESIGNIVSKENAATMKDFMRNVVEDGTGVNAAVEGIQVAGKTGTADHKVNGKDATPHSWFIGFAPYDNPQVAIAVIVEDGGQGGKAAAGIASKVIQTALQK”, “failed”.
As for “MNNKQLDFTEGSITKKMVVFSWPIFLSNLLQTSYQITDSLWVGNLLGASALGALSISATVVFMVLSFIIGLNGATLTVLSQRQGAKDEAGLKASLNAFVFVLGLLAILLGLIGYFSASSILQLLGTPEEILPLAESYLKINFIGILFLFGYNFIGTVLRAMGDSRSPVRFIFIAVILNIILDPLMIAGFNLGIDGAAYATIVSQGTAFIYGLIYSVRKAGVPFQIPYVPEKRYFFVLFKLGLPAGLSMITISAGVTAILSVVTSFGEEAVAGFGAAQRLDSLIMLPALTLGSAVNTIAGQNIGANKWERVRATAKQGVMLIIAVTLIIGLITFIGAQFFIRLFVRDEATVAFGAMYIQTIAFFYPFLGINFVLNGIVRASGAMFPVLLLNIISFWILRYPLTYWMSDLFGERGIALGMGFAFVVSSLIATGYYFLGNWRKVGEELAQKTGHSKV”, the protein production result is “failed”.
With “MNNLFAAPTPEEHAALLQEIGPLPLSGQAWPDWVRILAWIVLAVIGVQIVTTAIGLPPGQVNPVLAGTIILCFLGLALVSWHMQISVTRIDESGLRQTWITRREVAWQDIQFAKFVPLLFSKRLVVFTRHGRPIVFQGGTRDLQVAFAKISLLYRRKR”, the protein production result was “failed”.
Turning to “MNNPDLPYRQALECLSQKQYNFTEVRRLLTEAFSAGHPAAAFELAKHLMDADSPYQDREQGMEMLRIAAEQGHPYARYNLAYIQELEGAPPETLIPLYRPLAEEGLPEAQVRLMYLLYASRHFEEALEWAKTSAKNNNPHGQYLLAQYCRYGTPPDFETAHLLYRKSAAQGLPEAHWQLGLQYRFGQGTKVDTAQAVNHLRAAAQQGYIPAYTPLAELILPTAPDEAVHWFQQAAQENDPDAHAALADIYLQGKHLERNHKLALHHAEAAAAERHPEGLRILGDICRYGLGIAPDTEKARHYYRQAAEAGSLSAYQKLISDSALNHPDQYGGIKDSAIRRQRAERLYQKAQALHYGLQCAPEYAAALKLYTEAAELGHSKAQTNLGSMYYFGQGMTADYNEARKWFEKAAAKKDSMAFYNLACIHYSGHGVEPDKEKACRYLQEAINNGYGQKSVLQELLQQWQNAV”, the protein production entry was “failed”.
“MNNQYKLIEEFNNAEFDKSLKWFSPPKDWEVNSNKSKLIVKPDKETDFWQKTHYEFQVDNGHFLYYELNGDFRLITKVKSKPANRYDQAGLMVRFSKDTWLKTSVEYIPDDNSKLGVVVTKNGYSDWSSQEFFGDLNSLYYRITRRGNNYYVDYSLDGDLWKQIRMVYLFEEKDCMKVGIYACSPQGDGYEAEFEFIKIENIDDNTKVY”: the protein production entry was “failed”.
For the sequence “MNNRDLLLGIFVMIIWGLNFSVIKLGVSEIDPLLLTALRFSFAVIPAVFFVKRPQVKWRYLMGYGLVFAIGVWGMGSWSIQAGLSAGMASVLLQMNVVISLLVGYFVLKETVAPIKVVGSVVAILGLALSVSVTDGSVTTLGLVFILIAALSWSITSILVKKAGTKEIFAFSIWGMLFAPLPLFALAFLRGGPEQLQTLNSLANGSVIFSVLFQAYPVTLFGYWVWNRLLVKYPLSTVAPLTFLVPIFGLLGSAIFYQEQIGLVKALACLLIIVGLIIGLIKTEKLKAYLHQPKSAKQVV”, the protein production result is recorded as “failed”.
To “MNNRELYGNIRDVYHLLQKNLDKAIEQYDISYVQFGVIQVLAKSGKVSMSKLIENMGCVPSNMTTMIQRMKRDGYVMTEKNPNDQRETLVYLTKKGEETKKQVDVQYSDFLKENCGCFTKEEEGILEDLLLKWKKHLN” belongs “not failed”.
For “MNNSFRNKIHEQSKENLSDDRHKKSDRTLIVFNRKTPLYFYFFEQVRYITGSIYILIETPSSRNLPIYSNICIPISSHPNTNYRPKKRKKNPPTVYLTTIILIMGLLSLEDTIKEKLKDRKNAHFMLVDGMSKLLTEKVKNCQSLDFQVSGVKWRLVIRLSRGRKDHLSFVLEITDEKCTGSTWDVKFNFKIGIVPQTGPDYCFVLVGHQNEKKRSQGLANFISHTDLKERFLVNDKAGFYAEISDVQPNFPVTRIPRTMGTAERFKLIEFSPKNSRFTWKITQFSSFDGEEHSSYEFTVGPRRWKLVMYPKGNGDGKGNSLSLYLFASDYVTNGPKGGTLAIYKLRVLDQLNRNHCETECRYWFPYNPVNQMDSLWGRPKFLPLEELHKSSRGFLVNDQIYIGVEISIVSTTEYL”, the protein production result is given as “failed”.
To “MNNTLLYVITVLIWGSTWIAINYQLGEVAAEVSIVYRFGLAALCMFAYCRFKKLPLKFSAKQHLQLSAFGLTLFGFNYYLLYNAQAHINSALTSIAFSTLMMINILNARVWFKTRISSRVYYGGALGLMGIVTLFWPQISNVHFGDSTLLGLGLCLIGVVFASTGNMISIKNQHDNMPVLPATAWGMMYGSLFMFVVALVQGQTFNFSYTFEYISSLLYLSIFGSVIAFGCYLTLLARIGAHKASYATIMFPAVAVVISSFFEGFIWDSYTFIGLSLMLAGNLVVLAKPGMLKRFNSTSLKQVSCSDAK” belongs “failed”; to “MNPGKGPVLRFRVQLLVVGFALALGAAHQAQAAPGRALYKLPDLRVGLGDDNQGDTIPGPTRPNGSIHPSPDTLKASNAGYNPAEPISGFAQLHSQGSGGVTTYGTFLLSPQVGEPVFDEAAHLSPKADETLAADAYSVRLTRYDTKVEITSAHYAAIYRLTYPTTDQAQVVLDVTRKVGGLVASEQADVQLFPEQGRIVGHVKAKGYWNPALIDIWFVAEFDQNPTAWGVFDKAERRDGALSGRTGSDERLGAWLTFKTTPTKPLLVKIAVSFVSAEMAKALLDREIPDWDFERVRRDTQAAWNDRLGQVRVEGMTESQQRRFYSALYHASTHPRDRSLDQPAARLGRPNWDEHYTLWDTYRTLFPLISVLRPSLYTANVNSLIHTFDKFGAADTAIIGGQNYHVGQGGDEVDNVLGEALLRGAEGVNWRDAWRVARFNAFERRRPRYLESGYFAVGDRSPEPNNQRAKSGSSTLGFALNDFYAAQVAAKAGQTDEAKILTERSANWRKIWNPDATSDGFSGFLMPRYADGKFQDIDPKLGWDGKVHNNVGYYEGTAWIYSYGVLHDLPGLVEAMGGRVRFNERLNHALDAGLIDITNEPSFATPWLFHAIGRADLSSRWAGEVVKHFTADAYPGDEDAGAMSSNFVFNSLGLFPKLGSDLYYLHGPRHGRTVIQLENGKTLEILAAKAGASRPYIASASFNGKPLAGPYVSQAQLLGGGVLSLSMSDQPGQWIYEGAVLTVRADQPSLVDGKTSTGWRAASGQSVTFSLKAPACIAAYSVSVGPDQADPSHWTLQAYDGRAWVSVDQQSNVVFDHRHATRTFPLAPGRYARLRWVLDGGSEASVSEVELIAGASCAAPTSGAPLL”, “failed”.
For “MNPIVKAPTLNDLPAPPPGKTGWPWTEQNEALPEKMPDGSDWPKISIVTPSYNYGQFIEETIRSVLLQGYPNLEYIVVDGGSTDNTVTIIRKYEKYLKYWASEPDHGQTDAINKGYRYCSGDVFAWLNADDLYYDQSTLLKVINFYQKGYDLIVGECLNINADGTHFNQAITSTEKSDPTYFKKYLRYWSSGFLPQPAIFVKKEMADQCFPLSIELYYAMDFQFFLRVLNQEPKSVWIQEKLTRLRWHEDSKTMGTISRIDFHAIVPEPEVHKVALAEAENLPTWLEKIFFRIQAFDYLSLQPYINSLDNFHWLQITKTIVKRPTLAVWPLFWKIFFRSLLGEQIYKLLKRTIRTNLEHHHHHH”, the protein production entry is listed as “not failed”.
In the case of “MNPLVIKLGGVLLDSEEALERLFTALVTYREKHERPLVIMHGGGCLVDELMKRLALPVVKKNGLRVTPADQIDIITGALAGTANKTLLAWAVKHQINAVGLCLADGNTVTVTLLDAELGHVGKAQPGSAALVQTLLAAGYMPIISSIGITVEGQLMNVNADQAATALAATLGADLILLSDVSGILDGKGQRIAEMTAQKAEQLIAQGIITDGMVVKVNAALDAARSLGRPVDIASWRHSEQLPALFNGVPIGTRISV”, the protein production entry is on record as “not failed”.
